Laboratory results taken from patent publication US20240131162A1.

Target: HER-2 (human) (UniProt P04626)
Experiment: SPR (BIAcore), HER-2 immobilised, antibody as analyte

ch4D5 (antibody)
koff: 6.3e-06 s⁻¹
kon: 110000 M⁻¹ s⁻¹
